Reference: patent publication US20210347873A1 (SHANGHAI PHARMAEXPLORER, published 2021)
Read-outs that look alike come from different tables or passages of the source. Blank lines part the entries; values can stand above or below the molecule they belong to.

Key:
[1] = target: biotinylated hBLyS-ECD (human) (UniProt Q9Y275); assay: BAFF R-coated ELISA, biotinylated hBLyS-ECD bound in presence of control antibody 100 nM
[2] = target: biotinylated hBLyS-ECD (human) (UniProt Q9Y275); assay: BAFF R-coated ELISA, biotinylated hBLyS-ECD bound in presence of control antibody 0.16 nM
[3] = target: biotinylated hBLyS-ECD (human) (UniProt Q9Y275); assay: ELISA on captured biotinylated hBLyS-ECD; control antibody 2.67 nM
[4] = target: biotinylated hBLyS-ECD (human) (UniProt Q9Y275); assay: ELISA on captured biotinylated hBLyS-ECD; control antibody 13.3 nM
[5] = target: biotinylated hBLyS-ECD (human) (UniProt Q9Y275); assay: ELISA on captured biotinylated hBLyS-ECD; control antibody 66.7 nM
[6] = target: biotinylated hBLyS-ECD (human) (UniProt Q9Y275); assay: BAFF R-coated ELISA, biotinylated hBLyS-ECD bound in presence of control antibody 0.8 nM
[7] = target: biotinylated hBLyS-ECD (human) (UniProt Q9Y275); assay: as above; remark: listed apart in the source
[8] = target: biotinylated hBLyS-ECD (human) (UniProt Q9Y275); assay: BAFF R-coated ELISA, biotinylated hBLyS-ECD bound in presence of control antibody 20 nM
[9] = target: biotinylated hBLyS-ECD (human) (UniProt Q9Y275); assay: ELISA on captured biotinylated hBLyS-ECD; control antibody 2.67 nM; remark: listed apart in the source
[10] = target: biotinylated hBLyS-ECD (human) (UniProt Q9Y275); assay: BAFF R-coated ELISA, biotinylated hBLyS-ECD bound in presence of control antibody 0.0064 nM
[11] = target: biotinylated hBLyS-ECD (human) (UniProt Q9Y275); assay: as above; remark: listed apart in the source
[12] = target: biotinylated hBLyS-ECD (human) (UniProt Q9Y275); assay: BAFF R-coated ELISA, biotinylated hBLyS-ECD bound in presence of control antibody 20 nM; remark: listed apart in the source
[13] = target: biotinylated hBLyS-ECD (human) (UniProt Q9Y275); assay: ELISA on captured biotinylated hBLyS-ECD; control antibody 66.7 nM; remark: listed apart in the source
[14] = target: biotinylated hBLyS-ECD (human) (UniProt Q9Y275); assay: ELISA on captured biotinylated hBLyS-ECD; control antibody 0.00427 nM
[15] = target: biotinylated hBLyS-ECD (human) (UniProt Q9Y275); assay: BAFF R-coated ELISA, biotinylated hBLyS-ECD bound in presence of control antibody 4 nM
[16] = target: extracellular domain of human BLyS protein (hBLyS-ECD), His-tagged, Ala134-Leu285 (human) (UniProt Q9Y275); assay: cell-based or functional assay
[17] = target: biotinylated hBLyS-ECD (human) (UniProt Q9Y275); assay: ELISA on captured biotinylated hBLyS-ECD; control antibody 0.00427 nM; remark: listed apart in the source
[18] = target: biotinylated hBLyS-ECD (human) (UniProt Q9Y275); assay: ELISA on captured biotinylated hBLyS-ECD; control antibody 0 nM (background)
[19] = target: biotinylated hBLyS-ECD (human) (UniProt Q9Y275); assay: ELISA on captured biotinylated hBLyS-ECD; control antibody 0.0213 nM
[20] = target: biotinylated hBLyS-ECD (human) (UniProt Q9Y275); assay: BAFF R-coated ELISA, biotinylated hBLyS-ECD bound in presence of control antibody 0 nM
[21] = target: His-tagged extracellular domain of human BLyS protein (hBLyS-ECD), Ala134-Leu285 (human) (UniProt Q9Y275); assay: cell-based or functional assay
[22] = target: extracellular domain of human BLyS protein (hBLyS-ECD), His-tagged, Ala134-Leu285 (human) (UniProt Q9Y275); assay: cell-based or functional assay; remark: listed apart in the source
[23] = target: biotinylated hBLyS-ECD (human) (UniProt Q9Y275); assay: BAFF R-coated ELISA, biotinylated hBLyS-ECD bound in presence of control antibody 0.032 nM
[24] = target: biotinylated hBLyS-ECD (human) (UniProt Q9Y275); assay: ELISA on captured biotinylated hBLyS-ECD; control antibody 0.107 nM
[25] = target: hBLyS-ECD (His-tagged extracellular domain of human BLyS protein, Ala134-Leu285) (human) (UniProt Q9Y275); assay: cell-based or functional assay
[26] = target: T1, extracellular domain of human BLyS protein (hBLyS-ECD), His-tagged, Ala134-Leu285 (human, UniProt Q9Y275 134-285); assay: cell-based or functional assay
[27] = target: T1, extracellular domain of human BLyS …; assay: cell-based or functional assay; remark: listed apart in the source

OD450 nm [1]: 1.87 OD450 nm
OD450 nm [2]: 2.04 OD450 nm
OD450 nm [3]: 0.237 OD450 nm
OD450 nm [4]: 0.072 OD450 nm
OD450 nm [5]: 0.14 OD450 nm
OD450 nm [6]: 1.83 OD450 nm
OD450 nm [7]: 1.85 OD450 nm
OD450 nm [8]: 2.01 OD450 nm
OD450 nm [9]: 0.0652 OD450 nm
OD450 nm [10]: 2.01 OD450 nm
OD450 nm [11]: 1.99 OD450 nm
OD450 nm [12]: 1.91 OD450 nm
OD450 nm [13]: 0.144 OD450 nm
OD450 nm [14]: 0.121 OD450 nm
OD450 nm [15]: 2.15 OD450 nm
Proportion of B lymphocytes in splenocytes (%), in vivo in mice [16]: 39.4%
OD450 nm [17]: 0.0798 OD450 nm
OD450 nm [18]: 0.0731 OD450 nm
OD450 nm [19]: 0.0699 OD450 nm
OD450 nm [20]: 2.37 OD450 nm
IgA Conc. in mouse serum, mice given hBLyS-ECD and antibody (in vivo neutralisation) [21]: 387 µg/mL
Proportion of B lymphocytes in splenocytes (%), mice given hBLyS-ECD and antibody (in vivo neutralisation) [21]: 39.7%
OD450 nm (as headed), mouse B lymphocyte proliferation; control antibody 0 nM [22]: 4390
OD450 nm (as headed), mouse B lymphocyte proliferation; control antibody 0.000256 nM [22]: 4940
OD450 nm (as headed), mouse B lymphocyte proliferation; control antibody 0.00128 nM [22]: 4690
OD450 nm (as headed), mouse B lymphocyte proliferation; control antibody 0.0064 nM [22]: 5070
OD450 nm (as headed), mouse B lymphocyte proliferation; control antibody 0.032 nM [22]: 5120
OD450 nm (as headed), mouse B lymphocyte proliferation; control antibody 0.16 nM [22]: 5370
OD450 nm (as headed), mouse B lymphocyte proliferation; control antibody 0.8 nM [22]: 5040
OD450 nm (as headed), mouse B lymphocyte proliferation; control antibody 4 nM [22]: 5100
OD450 nm (as headed), mouse B lymphocyte proliferation; control antibody 20 nM [22]: 4930
OD450 nm (as headed), mouse B lymphocyte proliferation; control antibody 100 nM [22]: 4880
Proportion of B lymphocytes in splenocytes (%), in vivo in mice [22]: 51%
OD450 nm [23]: 1.84 OD450 nm
OD450 nm [24]: 0.0662 OD450 nm
Molecule: hIgG Control (antibody)
mouse B lymphocyte proliferation stimulated by hBLyS-ECD (viable cell signal) at 0 nM antibody (OD450 nm (as headed)) [21]: 3570
mouse B lymphocyte proliferation stimulated by hBLyS-ECD (viable cell signal) at 0.000256 nM antibody [21]: 3970
mouse B lymphocyte proliferation stimulated by hBLyS-ECD (viable cell signal) at 0.00128 nM antibody (OD450 nm (as headed)) [21]: 3860
mouse B lymphocyte proliferation stimulated by hBLyS-ECD (viable cell signal) at 0.0064 nM antibody (OD450 nm (as headed)) [21]: 3730
mouse B lymphocyte proliferation stimulated by hBLyS-ECD (viable cell signal) at 0.032 nM antibody (OD450 nm (as headed)) [21]: 3920
mouse B lymphocyte proliferation stimulated by hBLyS-ECD (viable cell signal) at 0.16 nM antibody (OD450 nm (as headed)) [21]: 4200
mouse B lymphocyte proliferation stimulated by hBLyS-ECD (viable cell signal) at 0.8 nM antibody (OD450 nm (as headed)) [21]: 4290
mouse B lymphocyte proliferation stimulated by hBLyS-ECD (viable cell signal) at 4 nM antibody (OD450 nm (as headed)) [21]: 4430
mouse B lymphocyte proliferation stimulated by hBLyS-ECD (viable cell signal) at 20 nM antibody (OD450 nm (as headed)) [21]: 4700
mouse B lymphocyte proliferation stimulated by hBLyS-ECD (viable cell signal) at 100 nM antibody (OD450 nm (as headed)) [21]: 3720

mouse B lymphocyte proliferation (OD450 nm), antibody 0 nM [25]: 2730 OD450 nm
mouse B lymphocyte proliferation (OD450 nm), antibody 0.000256 nM [25]: 3130 OD450 nm
mouse B lymphocyte proliferation (OD450 nm), antibody 0.00128 nM [25]: 3880 OD450 nm
mouse B lymphocyte proliferation (OD450 nm), antibody 0.0064 nM [25]: 3700 OD450 nm
mouse B lymphocyte proliferation (OD450 nm), antibody 0.032 nM [25]: 4010 OD450 nm
mouse B lymphocyte proliferation (OD450 nm), antibody 0.16 nM [25]: 4020 OD450 nm
mouse B lymphocyte proliferation (OD450 nm), antibody 0.8 nM [25]: 3950 OD450 nm
mouse B lymphocyte proliferation (OD450 nm), antibody 4 nM [25]: 3100 OD450 nm
mouse B lymphocyte proliferation (OD450 nm), antibody 20 nM [25]: 2590 OD450 nm
mouse B lymphocyte proliferation (OD450 nm), antibody 100 nM [25]: 3400 OD450 nm
Molecule: mIgG Control (antibody)

Proportion of B lymphocytes in splenocytes (%), in vivo in mice [26]: 24.1%
Proportion of B lymphocytes in splenocytes (%), in vivo in mice [27]: 28.2%
B1: c97A3C2H4 (antibody, V domains shown)
VH: EVKLVESGGGLVQPGGSLKLSCAASGFTFSTYTMSWVRQTPEKRLEWVAYISYGGGSTSYPDTVKGRFTISRDNAKNTLYLQMSSLKSEDTAIYYCTRHVTVVENSMDYWGQGTSVTVSS
VL: DILLTQSPDILSVSPGERVSFSCRASQSIGTSIHWYQQRTNGSPRLLIKYVSESFSGTPSRFSGSGSGTAFTLTINSVESEDIADYYCQQTHSWPWTFGGGTKLEIK
notes: also called chimeric antibody c97A3C2H4
